Key:
HLA-A*2401 (human) = assay: competition vs 125I-labelled probe peptide, purified HLA, gel filtration; conditions: scale: ratio to standard peptide
HLA-A*0201 (human) = assay: 125I-probe peptide inhibition, purified HLA
HLA-A*0206 (human) = assay: 125I-probe peptide inhibition, purified HLA
HLA-A*0301 (human) [1] = assay: 125I-probe peptide inhibition, purified HLA
HLA-A*0301 (human) [2] = assay: competition with 125I-labelled probe peptide for purified HLA-A*0301
HLA-A*6801 (human) = assay: 125I-probe peptide inhibition, purified HLA

Substance	relative binding ratio (HLA-A*2401 (human))	other results
p53 peptide, position 18, 9 amino acids	0.001	
p53 peptide, position 18, 8 amino acids	0.0016	
p53.129 (9-mer) (peptide)		IC50 (HLA-A*0201 (human)): 735 nM
p53 peptide, position 117, 10 amino acids	0.0001	
p53 peptide, position 102, 8 amino acids	0.11	
p53 peptide, position 43, 11 amino acids	0.0023	
p53 peptide, position 204, 9 amino acids	0.001	
p53.65 (10-mer) (peptide)		IC50 (HLA-A*0206 (human)): 841 nM
p53 peptide, position 106, 9 amino acids	0.02	
p53.240 (9-mer …) (peptide)		IC50 (HLA-A*0301 (human) [1]): 550 nM
p53 peptide, position 340, 9 amino acids	0.0001	
p53 peptide, position 106, 8 amino acids	0.028	
p53 peptide, position 102, 10 amino acids	0.12	
p53 peptide, position 311, 10 amino acids		relative binding ratio (HLA-A*0301 (human) [2]): 0.0035
p53 peptide, position 125, 10 amino acids	5.1	
p53 peptide, position 337, 8 amino acids	-0.0004	
p53.273 (8-mer) (peptide)		IC50 (HLA-A*6801 (human)): 571 nM
p53 peptide, position 22, 11 amino acids	-0.0003	
